“Also recorded” adds a separate entry of the source.
Assays:
[1] = target: Ribosomal protein S1 bearing the C-terminal degradation peptide tag (UniProt P0AG67)
[2] = test system: GFP fusion with aminoglycoside acetyltransferase (AAC)
[3] = target: Ribosomal protein S1 bearing the C-terminal control peptide tag (UniProt P0AG67)

ClpXP protease (complex of a hexamer of the ClpX unfoldase and the 14-mer ClpP protease)
amount of S1-deg present 25, 35, and 45 minutes post induction, quantified against a dilution series on an immunoblot [1]: less than 0.5% of the level present prior to induction | level of S1-deg after induction of ClpP-X (anti-FLAG immunoblot of total protein) [1]: the level of S1-deg was reduced to approximately 50% by 15 minutes; also recorded: to trace levels at 25 minutes and beyond | number of colony-forming units on plates under inducing against non-inducing conditions [1]: expression of ClpP-X reduced the number of colony-forming units by more than a million-fold when the strain relied on S1-deg for growth | in vitro degradation at 30 degrees C with ClpX, ClpP, ATP and an ATP regeneration system (SDS-PAGE, Coomassie staining) [2]: By 80 minutes, all of the substrate (10-fold over ClpX6) was degraded | colony formation on plates with arabinose (ClpP and ClpX induced) [3]: Colony formation by the rpsA-cont strain was unaffected by ClpP-X expression | level of S1-cont after induction of ClpP-X (anti-FLAG immunoblot of total protein) [3]: The induction of ClpP-X in the rpsA-cont strain did not alter the level of S1-cont throughout the time course
